For two molecules, Activity and Km results are on record in ChEMBL document CHEMBL1671804, “Normal and abnormal heme biosynthesis. Part 7. Synthesis and metabolism of coproporphyrinogen-III analogues with acetate or butyrate side chains on rings C and D. Development of a modified model for the active site of coproporphyrinogen oxidase” (Bioorg Med Chem, 2011).

The target of data set [1] is T1, Oxygen-dependent coproporphyrinogen-III oxidase, mitochondrial (Homo sapiens) (UniProt P36551).
T1 sequence (whole entry): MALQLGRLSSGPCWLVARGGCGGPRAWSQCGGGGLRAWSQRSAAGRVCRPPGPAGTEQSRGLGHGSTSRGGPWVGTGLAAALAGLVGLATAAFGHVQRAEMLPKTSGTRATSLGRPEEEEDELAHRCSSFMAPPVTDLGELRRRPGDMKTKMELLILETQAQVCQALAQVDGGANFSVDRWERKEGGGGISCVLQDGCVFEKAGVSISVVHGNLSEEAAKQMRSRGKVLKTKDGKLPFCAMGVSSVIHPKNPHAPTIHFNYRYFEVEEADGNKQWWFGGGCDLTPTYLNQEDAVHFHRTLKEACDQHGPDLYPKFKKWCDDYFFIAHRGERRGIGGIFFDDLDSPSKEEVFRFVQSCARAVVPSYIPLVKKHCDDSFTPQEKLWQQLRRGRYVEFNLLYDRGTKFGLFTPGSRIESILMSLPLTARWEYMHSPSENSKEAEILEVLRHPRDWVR
As to the kind of experiment: Activity at recombinant human CPO assessed as product formation after 30 mins.

The test system of data set [2] is Uroporphyrinogen decarboxylase (Gallus gallus). As to the kind of experiment: Activity at chicken red cell hemolysate URO-D assessed as product formation after 150 mins.
Substrate in data set [3]: Cc1c2[nH]c(c1CCC(=O)O)Cc1[nH]c(c(CCC(=O)O)c1C)Cc1[nH]c(c(CC(=O)O)c1C)Cc1[nH]c(c(C)c1CC(=O)O)C2
Kind of data set: (§1) Activity at recombinant human CPO.

Substrate in data set [4]: Cc1c2[nH]c(c1CCC(=O)O)Cc1[nH]c(c(CCC(=O)O)c1C)Cc1[nH]c(c(CCC(=O)O)c1C)Cc1[nH]c(c(C)c1CCC(=O)O)C2
Described as §1.

Substrate in data set [5]: Cc1c2[nH]c(c1CCC(=O)O)Cc1[nH]c(c(CCC(=O)O)c1C)Cc1[nH]c(c(CCCC(=O)O)c1C)Cc1[nH]c(c(C)c1CCCC(=O)O)C2
Described as §1.

For the molecule `Cc1c2[nH]c(c1CCC(=O)O)Cc1[nH]c(c(CCC(=O)O)c1C)Cc1[nH]c(c(CC(=O)O)c1C)Cc1[nH]c(c(C)c1CC(=O)O)C2`, the Activity in data set [1] stood at 35.7%; in data set [2], 49.5%.

B1: Oxygen-dependent coproporphyrinogen-III oxidase, mitochondrial (Homo sapiens), P36551 (protein)
chain: MALQLGRLSSGPCWLVARGGCGGPRAWSQCGGGGLRAWSQRSAAGRVCRPPGPAGTEQSRGLGHGSTSRGGPWVGTGLAAALAGLVGLATAAFGHVQRAEMLPKTSGTRATSLGRPEEEEDELAHRCSSFMAPPVTDLGELRRRPGDMKTKMELLILETQAQVCQALAQVDGGANFSVDRWERKEGGGGISCVLQDGCVFEKAGVSISVVHGNLSEEAAKQMRSRGKVLKTKDGKLPFCAMGVSSVIHPKNPHAPTIHFNYRYFEVEEADGNKQWWFGGGCDLTPTYLNQEDAVHFHRTLKEACDQHGPDLYPKFKKWCDDYFFIAHRGERRGIGGIFFDDLDSPSKEEVFRFVQSCARAVVPSYIPLVKKHCDDSFTPQEKLWQQLRRGRYVEFNLLYDRGTKFGLFTPGSRIESILMSLPLTARWEYMHSPSENSKEAEILEVLRHPRDWVR
Broadly, the Km is the substrate concentration at which the rate is half of its maximum. As to B1, the Km in data set [3] came out at 6.8 µM; in data set [4], 0.68 µM; in data set [5], 0.76 µM.
